From patent US20230287143A1 (published 2023) come the findings set out here.

This experiment deals with human PD-L1 (human, UniProt Q9NZQ7 19-290). Put plainly: FACS.
Sequence of human PD-L1 (Q9NZQ7 19-290): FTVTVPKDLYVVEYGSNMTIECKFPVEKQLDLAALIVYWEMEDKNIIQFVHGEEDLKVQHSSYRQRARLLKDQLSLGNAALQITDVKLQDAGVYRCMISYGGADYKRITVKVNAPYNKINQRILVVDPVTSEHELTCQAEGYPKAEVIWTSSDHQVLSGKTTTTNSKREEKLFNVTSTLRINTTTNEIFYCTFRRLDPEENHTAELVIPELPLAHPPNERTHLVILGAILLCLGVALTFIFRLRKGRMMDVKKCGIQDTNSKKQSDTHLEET

B1: PR004268, PD-L1×4-1BB bispecific binding protein with the VH-IgG structure (structure 4) (bispecific antibody)
light: DIQMTQSPSTLSASVGDRVTVTCRASQSIYIWLAWYQQKPGKAPNLLIYKASSLETGVPSRFSGSGSGTEFTLTISSLQPDDFATYYCQQYYGSSRTFGQGTKVEIKRTVAAPSVFIFPPSDEQLKSGTASVVCLLNNFYPREAKVQWKVDNALQSGNSQESVTEQDSKDSTYSLSSTLTLSKADYEKHKVYACEVTHQGLSSPVTKSFNRGEC
heavy: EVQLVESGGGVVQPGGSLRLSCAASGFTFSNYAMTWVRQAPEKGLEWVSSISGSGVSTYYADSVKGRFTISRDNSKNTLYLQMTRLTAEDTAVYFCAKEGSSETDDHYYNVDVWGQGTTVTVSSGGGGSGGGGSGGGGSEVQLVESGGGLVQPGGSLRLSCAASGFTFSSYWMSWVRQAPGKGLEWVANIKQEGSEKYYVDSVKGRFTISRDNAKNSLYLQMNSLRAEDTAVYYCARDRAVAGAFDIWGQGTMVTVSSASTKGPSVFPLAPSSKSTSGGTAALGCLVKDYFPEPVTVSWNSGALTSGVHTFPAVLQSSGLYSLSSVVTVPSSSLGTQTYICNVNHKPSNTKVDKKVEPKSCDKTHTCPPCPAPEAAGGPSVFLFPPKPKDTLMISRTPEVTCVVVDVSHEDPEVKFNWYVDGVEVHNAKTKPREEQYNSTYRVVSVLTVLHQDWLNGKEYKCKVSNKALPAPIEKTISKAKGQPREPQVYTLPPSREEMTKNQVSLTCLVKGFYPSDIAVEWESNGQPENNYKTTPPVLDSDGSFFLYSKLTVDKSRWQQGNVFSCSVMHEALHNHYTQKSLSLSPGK
The molecule B1 had an EC50 of 1.2 nM. That is a single-digit nanomolar value.
